Results on three molecules are retold here after patent publication US20130203080A1 (UNIVERSITE MONTPELLIER 2, published 2013).

The target of assay [1] is T1, glucose transporter Glut1 on human cells (B cells, B-CLL cells, red blood cells, T cells) (human, UniProt P11166 1-492).
T1 construct: whole, on cells; Endogenous receptor on primary human cells; the species follows from the cells; also called HTLV Env receptor
T1 sequence: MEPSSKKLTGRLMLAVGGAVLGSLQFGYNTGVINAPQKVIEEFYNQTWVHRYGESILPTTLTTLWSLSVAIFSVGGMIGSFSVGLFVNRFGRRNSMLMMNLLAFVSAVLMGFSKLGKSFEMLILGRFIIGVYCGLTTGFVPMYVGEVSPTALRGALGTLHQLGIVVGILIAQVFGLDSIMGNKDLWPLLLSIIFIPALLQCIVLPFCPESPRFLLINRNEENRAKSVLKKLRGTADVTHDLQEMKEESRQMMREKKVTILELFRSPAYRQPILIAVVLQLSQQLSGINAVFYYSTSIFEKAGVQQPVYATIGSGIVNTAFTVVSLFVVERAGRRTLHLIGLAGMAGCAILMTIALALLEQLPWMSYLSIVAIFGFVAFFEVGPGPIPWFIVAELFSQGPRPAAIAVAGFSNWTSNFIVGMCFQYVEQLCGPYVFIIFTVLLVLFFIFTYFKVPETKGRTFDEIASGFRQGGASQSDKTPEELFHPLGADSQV
Nature of the assay: flow cytometry, GFP-tagged RBD on human red blood cells. Background: A flow cytometer gives signals particle by particle.

Assay [2] addresses T2, PiT1 phosphate transporter on human cells (T cells, CD34 progenitor cells) (human, UniProt Q8WUM9 1-679).
T2 construct: whole, on cells; also called GaLV Env receptor
T2 sequence: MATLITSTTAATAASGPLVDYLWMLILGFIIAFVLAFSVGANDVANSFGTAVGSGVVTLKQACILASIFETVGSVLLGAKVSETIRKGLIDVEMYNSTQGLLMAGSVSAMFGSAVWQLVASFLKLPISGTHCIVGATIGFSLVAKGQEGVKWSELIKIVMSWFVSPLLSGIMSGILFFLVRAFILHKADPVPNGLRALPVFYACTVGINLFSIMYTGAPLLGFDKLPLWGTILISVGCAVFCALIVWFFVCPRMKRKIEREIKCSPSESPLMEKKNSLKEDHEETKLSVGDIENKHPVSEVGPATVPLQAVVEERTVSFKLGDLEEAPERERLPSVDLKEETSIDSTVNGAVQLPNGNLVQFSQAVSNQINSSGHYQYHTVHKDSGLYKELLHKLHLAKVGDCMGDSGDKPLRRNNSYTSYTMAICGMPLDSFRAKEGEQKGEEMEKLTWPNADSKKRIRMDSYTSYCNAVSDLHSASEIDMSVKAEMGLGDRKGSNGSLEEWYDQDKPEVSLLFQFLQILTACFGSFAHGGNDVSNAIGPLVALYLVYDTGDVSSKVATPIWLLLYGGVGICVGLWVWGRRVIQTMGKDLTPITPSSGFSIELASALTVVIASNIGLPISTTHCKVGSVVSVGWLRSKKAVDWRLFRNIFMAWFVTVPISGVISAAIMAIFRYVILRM
Nature of the assay: flow cytometry, tagged RBD on unstimulated and TCR-stimulated human T cells.

Assay [3] concerns the target T3, PiT1 phosphate transporter on murine cells (CD4+ T cells; cerebellar cortex sections) (mouse, UniProt Q61609 1-681).
T3 construct: whole, on cells
T3 sequence: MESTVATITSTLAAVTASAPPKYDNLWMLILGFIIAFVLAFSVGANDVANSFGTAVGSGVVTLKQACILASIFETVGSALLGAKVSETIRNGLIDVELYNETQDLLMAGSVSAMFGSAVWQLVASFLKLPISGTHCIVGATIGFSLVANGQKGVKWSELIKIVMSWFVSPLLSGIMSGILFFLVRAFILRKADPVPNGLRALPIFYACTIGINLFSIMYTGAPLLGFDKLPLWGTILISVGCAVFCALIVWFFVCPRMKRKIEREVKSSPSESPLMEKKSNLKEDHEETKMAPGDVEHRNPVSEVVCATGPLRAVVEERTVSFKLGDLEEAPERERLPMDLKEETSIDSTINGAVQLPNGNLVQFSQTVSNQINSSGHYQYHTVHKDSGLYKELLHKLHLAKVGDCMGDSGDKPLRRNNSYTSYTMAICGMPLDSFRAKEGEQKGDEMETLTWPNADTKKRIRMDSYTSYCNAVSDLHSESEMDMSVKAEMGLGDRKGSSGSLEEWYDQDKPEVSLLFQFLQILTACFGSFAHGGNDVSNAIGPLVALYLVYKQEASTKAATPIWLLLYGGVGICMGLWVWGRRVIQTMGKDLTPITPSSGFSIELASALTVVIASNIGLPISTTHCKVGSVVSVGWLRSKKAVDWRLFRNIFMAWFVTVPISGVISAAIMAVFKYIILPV
As to the kind of experiment: flow cytometry, RBD on murine CD4+ T cells polarised to Th0, Th1, Th2, Th17 or iTreg, day 4.

Assay [4] deals with T3, PiT1 phosphate transporter on murine …. Nature of the assay: fluorescence staining of mouse cerebellum cryosections with RBD-rFc, biotinylated anti-rabbit IgG, Streptavidin-Alexa488.

B1: HTLV2 (SEQ ID NO: 28) tagged with a green fluorescent protein (GFP) (ligand)
chain: QQSRCTLTVGISSYHSSPCSPTQPVCTWNLDLNSLTTDQRLHPPCPNLITYSGFHKTYSLYLFPHWIKKPNRQGLGYYSPSYNDPCSLQCPYLGCQSWTCPYTGPVSSPSWKFHSDVNFTQEVSQVSLRLHFSKCGSSMTLLVDAPGYDPLWFITSEPTQPPPTSPPLVHDSDLEHVLTPSTSWTTKILKFIQLTLQSTNYSCMVC
notes: also called HRBD-EGFP; non antibody Glut1-ligand; not shown: green fluorescent protein tag (GFP / EGFP)
Consider B1, for which the binding result in assay [1] is “binds”.

B2: Gibbon Ape Leukemia virus (GALV) Env receptor binding domain, tagged soluble receptor binding ligand (ligand)
chain: TSLQNKNPHQPMTLTWQVLSQTGDVVWDTKAVQPPWTWWPTLKPDVCALAASLESWDIPGTDVSSSKRVRPPDSDYTAAYKQITWGAIGCSYPRARTRMASSTFYVCPRDGRTLSEARRCGGLESLYCKEWDCETTGTGYWLSKSSKDLITVKWDQNSEWTQKFQQCHQTGWCNPLKIDFTDKGKLSKDWITGKTWGLRFYVSGHPGVQFTIRLKITNMPAVAVGPDLVLVEQGPPRTSLALPPPLPPREAPPPSLPDSNSTALATSAQTPTVRKTIVTLNTPPPTTGDRLFDLVQGAFLTLNATNPGATESCWLC
notes: also called GaLV RBD; not shown: tag not specified
Consider B2, for which the binding result in assay [2] and in assay [3] was “binds” throughout.

B3: Gibbon ape Leukemia Virus-RBD soluble RBD-rFc fusion protein (Fc fusion)
chain: B2 chain
notes: also called GRBD; not shown: rabbit IgG Fc (rFc)
With B3, the binding result in assay [4] was “binds”.
